Experimental data as given in the DeepSol protein solubility set.

Test: soluble on expression in E. coli; label from the status in PepcDB or PDB records

Row | Sequence | soluble on expression in E. coli
1 | MSLCDVLQMARSTYYYEAKIRDDQDEELSELIVDIFKNSRDNYGQRKIKIELRKKGWTVSRRRIGRIMKEQGLVSKYTVAQFKPAKTSCNESEIGNTLNREFNQEQELKVVVSDLTYVRVQQKWHYICVLVDLYNREIIGYSAGPHKSAELVQRAFASVKYNLQRLELFHTDRGSEFKNKLIDQALETFGIERSLSEKGTPYDNAVAEATFKTIKTEFVRGAVFSSQQELDLELFDYVHWFNTIRIHGSLDYLTPTEYKLMNLEGHHHHHH | not soluble
2 | MSLDAIEAEREVLIGFLQEFVRAASPNPPGDTRAAAAVIQGFLSARGVPNELLGPQESMPNVVSECEGGRAGPRLVYNGHMDVFPVGDGHGWTRDPWSGDIEEGRLHGRGTCDMKTGTAASVIAYAYLYARRAQLAGSVALTAVSDEETGGRWGTRWLLENDTRWRGDCVLNGEPSSLDTIRFSEKGTLRLKFEVLAAGAHGAYVHRSESPTRIAAALIGRLAEVEAIEPSLPAALKAHLQREDVRRALDVAMGEGAADVVTRTTLNVGVLNGGLKINMIPDRCVFEVDIRLPVGTEPDVVLARLEGILAEFPQASMEVQQWHSTPPNVCAHDHPMVDFIADNAQAIVGRRPVAVPSIGSTDCRYWRRSGVPAYVYGPAPGRMAMSNESVDLDEFIAVAKVHAAAGWDYLNGAAEGHHHHHH | not soluble
3 | MSLDALTTLPIKKHTALLNRFPETRFVTQLAKKRASWIVFGHYLTPAQFEDMDFFTNRFNAILDMWKVGRYEVALMDGELTSEHETILKALELDYARIQDVPDLTKPGLIVLDMDSTAIQIECIDEIAKLAGVGEEVAEVTERAMQGELDFEQSLRLRVSKLKDAPEQILSQVRETLPLMPELPELVATLHAFGWKVAIASGGFTYFSDYLKEQLSLDYAQSNTLEIVSGKLTGQVLGEVVSAQTKADILLTLAQQYDVEIHNTVAVGDGANDLVMMAAAGLGVAYHAKPKVEAKAQTAVRFAGLGGVVCILSAALVAQQKLSWKSKEGHHHHHH | soluble
4 | MSLDAVDGVRLEEGDAIDWIVFDRPQAANSFSATLLEQFSALVKDRQANGAPVLGIRGSGRGFSSGMDLGEYNATSGPTSDVLRLSSYVERWLDLWRHPKPVIVAVHGYCIGVAAQLASFADILVVAEDAMISEPTIPIGGGFIAPTWVSHVGSRHAKEFAFLPGNRIDGRMAAAWGWANCAVPASEVIACCESLAQRMKLMPPAVLAMKKRSINRAMEAAGFHAAASAIAESDALLHLEPEVTAIRNRLRTEDLKAVVGSYAGESSQEIFQREGHHHHHH | soluble
5 | MSLDEIKIEKLKKLDKKALNELIDVYMSGYEGLEEYGGEGRDYARNYIKWCWKKASDGFFVAKVGDKIVGFIVCDKDWFSKYEGRIVGAIHEFVVDKKFQGKGIGRKLLITCLDFLGKYNDTIELWVGEKNYGAMNLYEKFGFKKVGKSGIWVRMIKRQNLEGHHHHHH | soluble
6 | MSLDEKLRTSGVQVIGDIAWGTHFCQFYRTQEELVNVVCPYLKAGLEGNELCIWALPRDFETKKEAEGPLRRTIPKLDIYLEKGQMEIISYKDRYAEKEIPDSKKALENLIKKADYALLNGYSGLRLVQDTSWLKNDWKNLTGYEEELDIAIENRRITALCTYSSGKFDTDETIYAALSHRFVLVKKEGNWEKVENPRLKKAEERVIQPSEEVETKTEEENENLKKLLEERTVELTEAYKSLKVNEKQFLQIRKMTHIGNWKWDILTGELHWSDEVYRIFGRDPERFKATCDAFLGSVHPDDREYLINSIKKDFDEQIRNIDYRIVLPDGEERTVRTRVEITFDEEGHHHHHH | not soluble
7 | MSLDFAKQGPIVIGGVGGSGTRLIAEIVMDMGFYLGGMLNQSKDLLYFSLLFKRPTWFSKVVTSNEQEIFRGLKILENRLTTQKELTGKDIKFIEKAAQTYRNGDLLAQKIKKNMLFPDPINRQLYRGWGWKEPNAHLFLPYIHRYFPNGKYIHVIRNGLNMAFSKNQQQLFNWGPLFGVTIPNNPMKIPNASLTYWIKANERAVMYGTEQMKGRFLLIQFDQLCVNPTPQLQKLAEFLAVDDLAIDEWSEKIDPAAAASKYKEGHHHHHH | soluble
8 | MSLDGGYRTLAAAELFKRYGHLISPVSGPIAYLHPMPGRNAGMRHMYVAGYLVCPPSAPRENRFDKLCSGKGASDAQARASALAEALERFSGVYQGDEAALRGSLAQLSAHAPPGSGPIDVNALQQYSDRQFERRERHNATTDDPRKQVPRRFTRDSVIDWTPAWSIATGARRLVPLAYCYAETPASSGADYCVHNPNGCAAGACIEEAILQGLLELVERDAVAIWWYNMLRRPAVDIESFGDPYFDALAADYASLGWRLWALDITHDLRIPVFVALARETATGRFSIGFGCHPDSRIALQRALTEVNQLLDVGASAPPPWDVDKLPDDAFLHPDPALPPVRAPARAPHGRCDLKRDIEDCVARLAAAGIDTLVVDKTRPDIGLPVVQVIAPGLCHFWPRFGAPRLYSVPVAQRWRERPRDEDALNRAEGHHHHHH | not soluble
9 | MSLDHRLLSINTATVRRQGDLATIIEACARAQIRAISPWRDQVAHIGLPRAVEAVKATGLALSGYCRGGMFPADPARLPEVRDDNRRAVDEAEALGASCLVLVVGGLPQYARPGSAPSKDIGAARAMVEDGIGTLLEYARSAHMPLAIEPLHPMYAADRACVNTMGQALDICDRLDPERSGMLGVALDVFHVWWDPDLSAQIVRAGRDRLLAYHVCDWLVPMADMLNDRGMMGDGVIDLKAIRAQVEAQGYQGFAEVEIFSEHWWAKPMEEVLGTCISRHRSVVEGHHHHHH | not soluble
10 | MSLDIRLLIMPLPDFALLPFGAFLDKLRFSADDEDYSQQRYCSWMVAGLSLEPVPSSSGAVLQVEAIADQLDLDLFDYLVVFGGRSAMATAALAPRYQALLRQAAKAGVKLVGVDNGAFLLAACGLLQGHKVVVHWRHEAEFRAAFPQLQLLREQLYCIDGNRITCAGGTAAIDLAVALLSRACGRTRALKGLADMLVDETREGHHHHHH | soluble
11 | MSLDKIKAVIFDMDGVLIDAKEWHYEALNKALRLFGFEISRYDHLVTFDGLPTAKKLEMMTVERGLPKSLHQLINDMKQIYTMEYVYMKCKPLFVHQYALSRLKSEGFRLALASNSVRVTIDMMMEKADLNQYLDFSLSNQDVKKSKPDPEIYITAINRLGLSPEECLVVEDNQNGVKAALASGANLLKVETINDVTYSNIINRINEIENNIEGHHHHHH | soluble
12 | MSLDKVYPIGSQYTINGFIIGDDTTENGYPITAKIEVVDTKNTISPKLIAHTIPLNNVKINGNNRLTSNRDLAIKEIISWDVSQQLYNYRDTYGLSTEGYTRSDGWDSPETKLKGHGSGHYMSALALAYAAATNPSHKEILRRNITRMVNELRECQERTFVWSEELGRYLEARDFAPEEELKKMKGTWEAFDEHKTKWATYGYGYLNAIPPHHPALIEMYRAYNNSDWVWAPYYSIHKQLAGLIDIATYMDDKSIADKALLIAKDMGLWVWNRMHYRTYVKKDGTQEERRTHPGNRYEMWNMYIAGEVGGMGESLARLSEMVSAPEEKARLIEASNCFDSPAFYEPLSKNIDDIRNRHANQHIPMIIGALRSYLSNNDTFYYHVSHNFWNLIQGRYRYSTGGVGNGEMFRQPYTQIVSMAMNGVSEGESHSNPHINETCCAYNLLKLTKDLNCFNPDDARYMDYYERTLYNQIIGSLHPEHYQTTYQYAVGLNASKPWGNETPQSTCCGGTGSENHVKYQEATYFVSDNTLWVALYMPTTLHWEEKNITLQQECLWPAKSSTIKVTAGEARFAMKLRVPYWATDGFDVKLNGISIATHYQPCSYAVIPTRQWKENDIVEITMPFTKHIDYGPDKLPAEIASKDGHQLETAWVGTLMHGPFAMTATDITNWTEATLNIDSRLASITVVEPNGPQTGTTGNLYTLMQGGRTFQPDYYRHDHTTHYFRINHIKDPTVELKMALSAKLRETTAFSKSHYTKASFAKLTTAIQEGEKLMKISPLTETTISTCVDNIDKAIESLVASRLDKSNLEASIHIAKKCNPDLYTTDSFKTLQATLESAHEVMDNIDLQTVIDKQTLSLQDATASLVLANNVDKTELKELLNIAMERQTNQEKWNALAVKIPEFAPWAHFGFTRLKRTLEHAQNVYFNKDKNYSQGEVNAIVASLNTVINTMRPGNLPEMEDLRPLSALLRRVGTIDDSTDPTLKDAVAFTEMVIKYVADGSGTHDMIETAISRLKSAAGEGHHHHHH | soluble
13 | MSLDLDRKLIEILDILSKSKEPVGAKIIAKELNKRGYKIGERAVRYHLKLLDGMKLTKKVGYAGRVITERGLEELEKANISYRLGSIYSNILEKTISANYRFGYVVINRCQVYADFNDVLKIIKSVYESGLAVGDRVGIIDREKFVEINTLCSLNFDNILLQNGIFPLHVCAGVVKYEDGKPVEFKEIIDYKSTSIDPLRAFIEKKETDVMGIIENGEGYLPANFRYFGVEFLERFETILEIDELKCIISYGTENVLGLDVGDDKVGVALIGGLTPIAPFVENNYCVEICPMSSIVRLESLHKLKKNPRDIVTKKANIRIKTALSKMFNAMAKVTYDIDEADGDVIVNTAFIDKKYLDEAFDILKEAYKKGLGISDRFGIVEENDRIKIQTICAVTLDGIFLRNSVPLIPKYGGILEITEDKERFIDIIGYDGSSLDPHEVFFNFVDCEKTFLAGFREVHRVAREKLEEVLKKLNWNGIKAIGEPNNELYGIGVNKDMCGVVTMGGINPLVLLKENEIPIELKAMHEVVRFSDLKSYKEIEGHHHHHH | not soluble
14 | MSLDLHYKQFLLLNLYRQDKCLLAEVLLKDSSEFSFGVKFFNYGQLIAYIDSLNSNVYNASITENSFFMTFFRSYIIENTSHKNIRFFLENVECPFYLRHNEVQEFMFAMTLFSCGNFDQSYEIFQLHDYPEAINDKLPTFLEDLKSENYHGDSIWKDLLCTFTVPYRHSAFYYQLSLLFDRNNSQEFALKCISKSAEYSLKEIQIEELQDFKEKQHIHYLNLLIHFRMFEEVLDVLRLGHECLSDTVRTNFLQLLLQEDIYSRDFFSTLLRLCNAHSDNGELYLRTVDIKIVDSILSQNLRSGDWECFKKLYCFRMLNKSERAAAEVLYQYILMQADLDVIRKRKCYLMVINVLSSFDSAYDQWILNGSKVVTLTDLRDELRGEGHHHHHH | not soluble
15 | MSLDLKRLKGSERVRKRVSVMMGSDDIRGCQHTLFEIVSNSIDRHRKGFGNYIKVIKHEDLSYTIIDHADGLPMDWNEKEHAYNWDLALKVLYAGDNYDANSTALGLNGLGLCSSQYASEFMEVISYKEDKKYTVKCKKGRPIDKETGEFICEDDDNLFTKEQGNRVLLVESNTENKTGTYIHYKPDLEVFTNIDISIDWINDKLDKQSMVNKGLKIEIYDEKEDRLYTHFYESGIKDYIKTISNDNNFSDVIYFTDKGKGRDKADKPEYDYNYEIALVFNNEINRLEYYHNSSELLQGGSTSDAISLAFTYAINEYAKNNNVFNKNESKIKFTDIQDSLICVISSFSTMTSYANQTKLSIDNKFIKDFTNQSLKEKLKLYFIENKLEADRIVNQILINKRANDKAEKSKIEIRNKEGHHHHHH | soluble
16 | MSLDNGIELPGVSFWGGNILQDTDGKYHLFVCGWPEDSPKGHMFWSNSTVFHAVSDRLEGPFKIQNSVGKGHNPEAFQLKDGRVVVYVIDGYYIADGVDSKVWTYGKFSFDSRDRKIIEGLSNLTFARRQDDSYLMVCRGGGVWISKDGLSPYMQLTDKRVYPDVEGRFEDPVVWRDELQYHLIVNDWLGRIAFYQRSKDGVHWVTEQGEAYVPGVSFHKDGAVEHWFKYERPKVFQDEKGRAVQMNFAVIDTIKWNDLPNEGHHHHHH | not soluble
